Results published in US20230192903A1 (published 2023).

What was measured:
Human CLDN18.2 [1] = target: Human CLDN18.2 (human); assay: cell-based or functional assay
Human CLDN18.2 [2] = target: T1, Human CLDN18.2 (human); assay: flow cytometry, NUGC4-hCLDN18.2 cells
T1 construct: the cell line is named under assay; also called hCLDN18.2; human CLDN18.2 antigen
Protocol: (§1) NUGC4 and NUGC4-hCLDN18.2 cells were cultured, digested with pancreatin and centrifuged to collect cells. The cells were collected and resuspended in buffer (PBS+1% FBS) at 1×10⁴ cells/well in a 96-well plate at 100 μL per well. Then the mixture was centrifuged at 350×g for 5 min, and the supernatant was removed.

Human CLDN18.2 [3] = target: T1, Human CLDN18.2; assay: cell-based or functional assay; remark: listed apart in the source
Human CLDN18.2 [4] = target: T1, Human CLDN18.2; assay: flow cytometry, NUGC4 cells (endogenous CLDN18.2)
Protocol: as §1

Human CLDN18.2 [5] = target: T1, Human CLDN18.2; assay: flow cytometry, NUGC4-hCLDN18.2 cells; remark: listed apart in the source
Protocol: as §1

Human CLDN18.1 = target: T2, Human CLDN18.1 (human, UniProt P56856 1-261); assay: flow cytometry, 293T-hCLDN18.1 cells
T2 construct: also called hCLDN18.1

Human CLDN18.2 [6] = target: T1, Human CLDN18.2; assay: cell-based or functional assay; remark: listed apart in the source
human CD3 antigen = target: T3, human CD3 antigen (human, UniProt P07766 23-126); assay: SPR (Biacore T200), human CD3 antigen amine-coupled on CM5 chip, 1:1 fit
T3 construct: also called Human CD3ϵ
Protocol: After the detection was completed, data fitting was carried out on the result pattern by adopting Biacore T200 Evaluation Software in a 1:1 binding fitting mode to obtain an equilibrium dissociation constant (KD).

B1: bispecific antibody CS5 (bispecific antibody, human IgG1, kappa)
light: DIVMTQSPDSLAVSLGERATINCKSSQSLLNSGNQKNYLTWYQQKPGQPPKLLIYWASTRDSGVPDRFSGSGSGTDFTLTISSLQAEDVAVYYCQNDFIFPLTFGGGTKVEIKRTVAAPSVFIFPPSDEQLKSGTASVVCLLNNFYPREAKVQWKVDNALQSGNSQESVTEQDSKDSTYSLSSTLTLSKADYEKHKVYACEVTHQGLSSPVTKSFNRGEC
heavy 1: QVQLQESGPGLVKPSETLSLTCTVSGFSLTRYGVSWIRQPPGKGLEWIGVIWGEGNTNYNPSLKSRVTISKDSSKSQVSLKLSSVTAADTAVYYCARVNFGNALDYWGQGTLVTVSSASTKGPSVFPLAPSSKSTSGGTAALGCLVKDYFPEPVTVSWNSGALTSGVHTFPAVLQSSGLYSLSSVVTVPSSSLGTQTYICNVNHKPSNTKVDKKVEPKSCDKTHTCPPCPAPPVAGPSVFLFPPKPKDTLMISRTPEVTCVVVDVSHEAPEVQFNWYVDGVEVHNAKTKPREEQFNSTFRVVSVLTVVHQDWLNGKEYKCKVSNKGLPAPIEKTISKTKGQPREPQVYTLPPCRDELTKNQVSLWCLVKGFYPSDIAVEWESNGQPENNYKTTPPVLDSDGSFFLYSKLTVDKSRWQQGNVFSCSVMHEALHNHYTQKSLSLSPGK
heavy 2: QVQLQESGPGLVKPSETLSLTCTVSGFSLTRYGVSWIRQPPGKGLEWIGVIWGEGNTNYNPSLKSRVTISKDSSKSQVSLKLSSVTAADTAVYYCARVNFGNALDYWGQGTLVTVSSASTKGPSVFPLAPSSKSTSGGTAALGCLVKDYFPEPVTVSWNSGALTSGVHTFPAVLQSSGLYSLSSVVTVPSSSLGTQTYICNVNHKPSNTKVDKKVEPKSCDKTHTAPAPAPAPAPAPAPAPQVQLVESGGGVVQPGRSLRLSCAASGFTFSTYAMNWVRQAPGKGLEWVARIRSKYNNYATYYADSVKDRFTISRDDSKNTLYLQMNSLRAEDTAVYYCARHGNFGNSYVSWAAYWGQGTLVTVSSGGGGSGGGGSGGGGSQTVVTQEPSLTVSPGGTVTLTCRSSTGAVTTSNYANWFQQKPGQAPRGLIGGTNKRAPGVPARFSGSLLGGKAALTLSGVQPEDEAEYYCALWYSNLWVFGGGTKVEIKGGGGSDKTHTCPPCPAPPVAGPSVFLFPPKPKDTLMISRTPEVTCVVVDVSHEAPEVQFNWYVDGVEVHNAKTKPREEQFNSTFRVVSVLTVVHQDWLNGKEYKCKVSNKGLPAPIEKTISKTKGQPREPQVCTLPPSRDELTKNQVSLSCAVKGFYPSDIAVEWESNGQPENNYKTTPPVLDSDGSFFLVSKLTVDKSRWQQGNVFSCSVMHEALHNHYTQKSLSLSPGK
notes: CSBODY structure: two 2C6.9 Fab arms; second heavy chain (first heavy entry) and first heavy chain with anti-CD3 scFv (2a5ga) between CH1 and Fc2
Q: Which “Induction of expression of CD25 EC50 (pM), NUGC4” value (Human CLDN18.2 [1]) does the source give for B1 here?
A: Its value is 481 pM.

Q: What about the “Induction of expression of CD25 EC50 (pM), NUGC4-hCLDN18.2” value (Human CLDN18.2 [1]) of the same binder?
A: Its value is 142 pM.

Q: And the “Induction of expression of CD69 EC50 (pM), NUGC4” value (Human CLDN18.2 [1])?
A: Its value is 141 pM.

Q: What about the “Induction of expression of CD69 EC50 (pM), NUGC4-hCLDN18.2” value (Human CLDN18.2 [1]) of the same binder?
A: The value was 70.5 pM.

Q: What about the EC50 (Human CLDN18.2 [2]) of the same binder?
A: The EC50 was 18.2 nM.

Q: What about the “EC50 (pM), in vitro killing by hPBMC, NUGC4-hCLDN18.2 cells” value (Human CLDN18.2 [3]) of the same binder?
A: The value was 132 pM.

Q: What about the “EC50 (pM), in vitro killing by hPBMC, NUGC4 cells” value (Human CLDN18.2 [3]) of the same binder?
A: Its value is 433 pM.

Q: And the EC50 (Human CLDN18.2 [4])?
A: The EC50 was 25.7 nM.

B2: bispecific antibody Y8 (bispecific antibody, human IgG1, kappa)
light: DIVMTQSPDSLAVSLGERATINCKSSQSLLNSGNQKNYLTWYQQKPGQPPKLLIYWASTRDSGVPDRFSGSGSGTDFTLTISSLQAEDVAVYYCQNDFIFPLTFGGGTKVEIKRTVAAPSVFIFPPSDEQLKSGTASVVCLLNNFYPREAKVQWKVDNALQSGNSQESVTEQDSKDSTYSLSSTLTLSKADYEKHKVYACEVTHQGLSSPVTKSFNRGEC
heavy: QVQLQESGPGLVKPSETLSLTCTVSGFSLTRYGVSWIRQPPGKGLEWIGVIWGEGNTNYNPSLKSRVTISKDSSKSQVSLKLSSVTAADTAVYYCARVNFGNALDYWGQGTLVTVSSASTKGPSVFPLAPSSKSTSGGTAALGCLVKDYFPEPVTVSWNSGALTSGVHTFPAVLQSSGLYSLSSVVTVPSSSLGTQTYICNVNHKPSNTKVDKKVEPKSCDKTHTCPPCPAPPVAGPSVFLFPPKPKDTLMISRTPEVTCVVVDVSHEAPEVQFNWYVDGVEVHNAKTKPREEQFNSTFRVVSVLTVVHQDWLNGKEYKCKVSNKGLPAPIEKTISKTKGQPREPQVYTLPPCRDELTKNQVSLWCLVKGFYPSDIAVEWESNGQPENNYKTTPPVLDSDGSFFLYSKLTVDKSRWQQGNVFSCSVMHEALHNHYTQKSLSLSPGK
chain: not shown
notes: YBODY structure: anti-CLDN18.2 Fab arm (2C6.9) and second monomer anti-CD3 scFv (L2K)-Fc
Q: How did the “Induction of expression of CD25 EC50 (pM), NUGC4” value (Human CLDN18.2 [1]) turn out when B2 was run?
A: The value was 182 pM.

Q: And the “Induction of expression of CD25 EC50 (pM), NUGC4-hCLDN18.2” value (Human CLDN18.2 [1])?
A: The value was 16.5 pM.

Q: What about the “Induction of expression of CD69 EC50 (pM), NUGC4” value (Human CLDN18.2 [1]) of the same binder?
A: The value was 33.3 pM.

Q: What about the “Induction of expression of CD69 EC50 (pM), NUGC4-hCLDN18.2” value (Human CLDN18.2 [1]) of the same binder?
A: The value was 2.98 pM.

Q: And the EC50 (Human CLDN18.2 [2])?
A: The EC50 was 46.9 nM.

Q: What about the “EC50 (pM), in vitro killing by hPBMC, NUGC4-hCLDN18.2 cells” value (Human CLDN18.2 [3]) of the same binder?
A: The value was 4.09 pM.

Q: And the “EC50 (pM), in vitro killing by hPBMC, NUGC4 cells” value (Human CLDN18.2 [3])?
A: The value was 57.8 pM.

Q: What about the EC50 (Human CLDN18.2 [4]) of the same binder?
A: Its EC50 is 75.1 nM.

B3: IMAB362 monoclonal antibody (antibody, human IgG1, kappa, V domains shown)
VH: QVQLQQPGAELVRPGASVKLSCKASGYTFTSYWINWVKQRPGQGLEWIGNIYPSDSYTNYNQKFKDKATLTVDKSSSTAYMQLSSPTSEDSAVYYCTRSWRGNSFDYWGQGTTLTVSS
VL: DIVMTQSPSSLTVTAGEKVTMSCKSSQSLLNSGNQKNYLTWYQQKPGQPPKLLIYWASTRESGVPDRFTGSGSGTDFTLTISSVQAEDLAVYYCQNDYSYPFTFGSGTKLEIKR
notes: prepared by Wuhan YZY Biopharma; also called Anti-CLDN18.2 monoclonal antibody IMAB362
Q: How did the EC50 (Human CLDN18.2 [5]) turn out when B3 was run?
A: Its EC50 is 10.8 nM.

B4: bispecific antibody CS9 (bispecific antibody, human IgG1, kappa)
light: DIVMTQSPSSLTVTAGEKVTMSCKSSQSLLNSGNQKNYLTWYQQKPGQPPKLLIYWASTRESGVPDRFTGSGSGTDFTLTISSVQAEDLAVYYCQNDYSYPFTFGSGTKLEIKRTVAAPSVFIFPPSDEQLKSGTASVVCLLNNFYPREAKVQWKVDNALQSGNSQESVTEQDSKDSTYSLSSTLTLSKADYEKHKVYACEVTHQGLSSPVTKSFNRGEC
heavy 1: QVQLQQPGAELVRPGASVKLSCKASGYTFTSYWINWVKQRPGQGLEWIGNIYPSDSYTNYNQKFKDKATLTVDKSSSTAYMQLSSPTSEDSAVYYCTRSWRGNSFDYWGQGTTLTVSSASTKGPSVFPLAPSSKSTSGGTAALGCLVKDYFPEPVTVSWNSGALTSGVHTFPAVLQSSGLYSLSSVVTVPSSSLGTQTYICNVNHKPSNTKVDKKVEPKSCDKTHTCPPCPAPPVAGPSVFLFPPKPKDTLMISRTPEVTCVVVDVSHEAPEVQFNWYVDGVEVHNAKTKPREEQFNSTFRVVSVLTVVHQDWLNGKEYKCKVSNKGLPAPIEKTISKTKGQPREPQVYTLPPCRDELTKNQVSLWCLVKGFYPSDIAVEWESNGQPENNYKTTPPVLDSDGSFFLYSKLTVDKSRWQQGNVFSCSVMHEALHNHYTQKSLSLSPGK
heavy 2: not shown
notes: CSBODY structure: two 175D10 Fab arms; second heavy chain (first heavy entry) and first heavy chain with anti-CD3 scFv (L2K) between CH1 and Fc2
Q: B4 was tested. Which EC50 (Human CLDN18.2 [5]) did it give?
A: Its EC50 is < 50 nM.

Q: Does B4 bind (Human CLDN18.1)?
A: Result: no binding

Q: And the “EC50 value for killing effect on NUGC4-hCLDN18.2 cells” value (Human CLDN18.2 [6])?
A: Its value is < 0.01 nM.

B5: bispecific antibody Y1 (bispecific antibody, human IgG1, kappa)
light: DIVMTQSPSSLTVTAGEKVTMSCKSSQSLLNSGNQKNYLTWYQQKPGQPPKLLIYWASTRESGVPDRFTGSGSGTDFTLTISSVQAEDLAVYYCQNDYSYPFTFGSGTKLEIKRTVAAPSVFIFPPSDEQLKSGTASVVCLLNNFYPREAKVQWKVDNALQSGNSQESVTEQDSKDSTYSLSSTLTLSKADYEKHKVYACEVTHQGLSSPVTKSFNRGEC
heavy: QVQLQQPGAELVRPGASVKLSCKASGYTFTSYWINWVKQRPGQGLEWIGNIYPSDSYTNYNQKFKDKATLTVDKSSSTAYMQLSSPTSEDSAVYYCTRSWRGNSFDYWGQGTTLTVSSASTKGPSVFPLAPSSKSTSGGTAALGCLVKDYFPEPVTVSWNSGALTSGVHTFPAVLQSSGLYSLSSVVTVPSSSLGTQTYICNVNHKPSNTKVDKKVEPKSCDKTHTCPPCPAPPVAGPSVFLFPPKPKDTLMISRTPEVTCVVVDVSHEAPEVQFNWYVDGVEVHNAKTKPREEQFNSTFRVVSVLTVVHQDWLNGKEYKCKVSNKGLPAPIEKTISKTKGQPREPQVYTLPPCRDELTKNQVSLWCLVKGFYPSDIAVEWESNGQPENNYKTTPPVLDSDGSFFLYSKLTVDKSRWQQGNVFSCSVMHEALHNHYTQKSLSLSPGK
chain: QVQLVESGGGVVQPGRSLRLSCAASGFTFSTYAMNWVRQAPGKGLEWVARIRSKYNNYATYYADSVKDRFTISRDDSKNTLYLQMNSLRAEDTAVYYCARHGNFGNSYVSWAAYWGQGTLVTVSSGGGGSGGGGSGGGGSQTVVTQEPSLTVSPGGTVTLTCRSSTGAVTTSNYANWFQQKPGQAPRGLIGGTNKRAPGVPARFSGSLLGGKAALTLSGVQPEDEAEYYCALWYSNLWVFGGGTKVEIKGRGRGSDKTHTCPPCPAPPVAGPSVFLFPPKPKDTLMISRTPEVTCVVVDVSHEAPEVQFNWYVDGVEVHNAKTKPREEQFNSTFRVVSVLTVVHQDWLNGKEYKCKVSNKGLPAPIEKTISKTKGQPREPQVCTLPPSRDELTKNQVSLSCAVKGFYPSDIAVEWESNGQPENNYKTTPPVLDSDGSFFLVSKLTVDKSRWQQGNVFSCSVMHEALHNHYTQKSLSLSPGK
notes: YBODY structure: anti-CLDN18.2 Fab arm (175D10) and second monomer anti-CD3 scFv (2a5ga)-Fc
Q: B5 was tested. Which Kd (human CD3 antigen) did it give?
A: Its Kd is 1980 nM.

B6: Anti-CLDN18.2 monoclonal antibody 2C6.9 (antibody, human IgG1, kappa, V domains shown)
VH: QVQLQESGPGLVKPSETLSLTCTVSGFSLTRYGVSWIRQPPGKGLEWIGVIWGEGNTNYNPSLKSRVTISKDSSKSQVSLKLSSVTAADTAVYYCARVNFGNALDYWGQGTLVTVSS
VL: DIVMTQSPDSLAVSLGERATINCKSSQSLLNSGNQKNYLTWYQQKPGQPPKLLIYWASTRDSGVPDRFSGSGSGTDFTLTISSLQAEDVAVYYCQNDFIFPLTFGGGTKVEIKR
notes: prepared by Wuhan YZY Biopharma
Q: Does B6 bind (Human CLDN18.1)?
A: Result: no binding (tested: 1000 nM)

B7: anti-CLDN18.2 monoclonal antibody 1E9.2 (antibody, human IgG1, kappa, V domains shown)
VH: EVQLVESGGGLVKPGGSLRLSCAASGFSFSNSAMSWVRQAPGKGLEWVSTISSGDSYTYYADSVKGRFTISRDNAKNSLYLQMNSLRAEDTAVYYCARQGYGNALDYWGQGTLVTVSS
VL: DIVMTQSPDSLAVSLGERATINCKSSQSLLNSGNQKNYLTWYQQKPGQPPKLLIYWSSTRESGVPDRFSGSGSGTDFTLTISSLQAEDFAVYYCQNDYYYPLTFGGGTKVEIKR
notes: as for B6
Q: Does B7 bind (Human CLDN18.1)?
A: Result: no binding (tested: 1000 nM)
